{"source": "patent US20230092787A1", "about": "(UNIVERSITY OF VIRGINIA PATENT FOUNDATION, published 2023)", "key": {"[1]": {"target": "T1, integrin alphav beta3 (αvβ3), human, on tumor cell lines (human, UniProt P06756 31-1048; P05106 27-788)", "T1 construct": "whole, on cells; Endogenous heterodimer on human DIPG and GBM tumor cell lines; also called integrin αvβ3; ITGAV/ITGB3", "T1 sequence (P06756 31-1048, chain 1 of 2)": "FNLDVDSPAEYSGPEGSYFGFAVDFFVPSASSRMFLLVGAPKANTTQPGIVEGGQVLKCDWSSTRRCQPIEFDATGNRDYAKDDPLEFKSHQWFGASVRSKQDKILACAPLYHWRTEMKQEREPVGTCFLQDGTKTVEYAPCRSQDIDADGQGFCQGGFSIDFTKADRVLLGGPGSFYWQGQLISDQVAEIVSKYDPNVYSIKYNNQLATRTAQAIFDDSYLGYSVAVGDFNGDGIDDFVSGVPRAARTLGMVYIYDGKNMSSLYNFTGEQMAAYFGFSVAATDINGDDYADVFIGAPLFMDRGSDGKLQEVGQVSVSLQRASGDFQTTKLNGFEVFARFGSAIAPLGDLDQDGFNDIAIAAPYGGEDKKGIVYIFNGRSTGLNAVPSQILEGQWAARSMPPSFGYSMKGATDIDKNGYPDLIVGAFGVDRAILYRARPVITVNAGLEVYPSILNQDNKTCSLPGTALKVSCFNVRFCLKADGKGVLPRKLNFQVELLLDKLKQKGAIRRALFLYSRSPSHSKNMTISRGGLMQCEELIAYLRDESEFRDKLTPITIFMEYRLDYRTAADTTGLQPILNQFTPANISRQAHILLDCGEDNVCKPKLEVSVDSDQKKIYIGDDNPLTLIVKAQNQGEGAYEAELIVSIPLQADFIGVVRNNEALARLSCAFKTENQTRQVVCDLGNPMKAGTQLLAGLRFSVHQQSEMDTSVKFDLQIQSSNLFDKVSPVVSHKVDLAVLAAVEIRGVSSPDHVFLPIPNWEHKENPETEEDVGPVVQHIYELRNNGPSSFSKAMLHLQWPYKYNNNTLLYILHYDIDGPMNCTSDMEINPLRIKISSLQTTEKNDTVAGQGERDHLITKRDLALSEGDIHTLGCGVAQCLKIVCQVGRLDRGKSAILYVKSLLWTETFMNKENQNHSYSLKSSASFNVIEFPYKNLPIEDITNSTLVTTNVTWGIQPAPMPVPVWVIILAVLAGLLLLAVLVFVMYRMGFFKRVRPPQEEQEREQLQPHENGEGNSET", "T1 sequence (P05106 27-788, chain 2 of 2)": "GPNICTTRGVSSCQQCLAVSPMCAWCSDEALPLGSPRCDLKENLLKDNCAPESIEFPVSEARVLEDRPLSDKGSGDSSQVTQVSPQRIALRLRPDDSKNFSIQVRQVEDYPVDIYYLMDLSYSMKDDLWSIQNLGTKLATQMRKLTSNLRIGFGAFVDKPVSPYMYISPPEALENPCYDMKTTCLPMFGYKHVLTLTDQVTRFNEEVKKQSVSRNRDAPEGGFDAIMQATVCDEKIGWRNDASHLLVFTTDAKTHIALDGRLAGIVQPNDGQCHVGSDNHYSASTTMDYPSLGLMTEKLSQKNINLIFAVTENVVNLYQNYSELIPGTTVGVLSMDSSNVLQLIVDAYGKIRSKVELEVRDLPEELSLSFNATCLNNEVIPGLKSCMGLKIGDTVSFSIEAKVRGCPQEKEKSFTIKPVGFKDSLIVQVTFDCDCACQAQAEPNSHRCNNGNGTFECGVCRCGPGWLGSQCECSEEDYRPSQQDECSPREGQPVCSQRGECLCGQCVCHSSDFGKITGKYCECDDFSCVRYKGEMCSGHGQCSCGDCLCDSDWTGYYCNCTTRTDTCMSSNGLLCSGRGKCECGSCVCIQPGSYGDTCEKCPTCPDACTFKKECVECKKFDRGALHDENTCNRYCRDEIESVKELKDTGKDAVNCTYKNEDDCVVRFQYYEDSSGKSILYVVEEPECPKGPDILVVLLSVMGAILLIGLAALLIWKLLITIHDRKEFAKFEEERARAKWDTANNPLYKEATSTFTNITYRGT", "experiment": "flow cytometry, PE-LM609 on GBM U251 cells", "procedure": "(§1) Human T cell analysis of ex vivo expanded CAR T cells, and T cells isolated from mouse blood, brain, and spleen was performed using antibodies against CD3 (HIT3a), CD4 (OKT4), CD8 (SK1), CD45RO (UCH1.1), CD45RA (H100), CCR7 (G043H7), CD127 (A019D5), PD-1 (EH12.2H7), LAG-3 (11C3C65), TIM-3 (F38-2E2), CD45 (2D1), and TCF-1 (7F11A10) (from BioLegend, San Diego, Calif., United States of America). Expression of integrin αᵥβ₃ CAR was detected using biotinylated protein L (Thermo Fisher Scientific, Waltham, Mass., United States of America) followed by streptavidin-conjugated PE (BioLegend, San Diego, Calif., United States of America). […] Sample data was acquired on a NovoCyte 3005 Flow Cytometer (ACEA Biosciences Inc., San Diego, Calif., United States of America) and analyzed using data analysis software sold under the tradename FLOWJO™ v10 (FlowJo LLC, Ashland, Oreg., United States of America).\n(§2) Tumor cell line expression of integrin αᵥβ₃ was measured by flow cytometry. More particularly, cell surface expression of integrin αᵥβ₃ was evaluated by flow cytometry staining with phycoerythrin-conjugated anti-integrin αᵥβ₃ monoclonal antibody (clone LM609) on diffuse intrinsic pontine glioma (DIPG), neuroblastoma, glioblastoma (GBM), triple-negative breast, bladder, rhabdomyosarcoma (RMS), lung, cervical squamous cell carcinoma, and melanoma tumor cell lines. […]"}, "[2]": {"target": "T1, integrin alphav beta3 (αvβ3), human, on …", "experiment": "flow cytometry, PE-LM609 on SU-DIPG-27 cells", "procedure": "as §1, §2"}, "[3]": {"target": "T1, integrin alphav beta3 (αvβ3), human, on …", "experiment": "flow cytometry, PE-LM609 on GBM U87 cells", "procedure": "as §1, §2"}, "[4]": {"target": "T1, integrin alphav beta3 (αvβ3), human, on …", "experiment": "flow cytometry, PE-LM609 on SU-DIPG-21 cells", "procedure": "as §1, §2"}, "[5]": {"target": "T1, integrin alphav beta3 (αvβ3), human, on …", "experiment": "flow cytometry, PE-LM609 on SU-DIPG-IV cells", "procedure": "as §1, §2"}, "[6]": {"target": "T1, integrin alphav beta3 (αvβ3), human, on …", "experiment": "flow cytometry, PE-LM609 on SU-DIPG-XIII cells", "procedure": "as §1, §2"}, "[7]": {"target": "T1, integrin alphav beta3 (αvβ3), human, on …", "experiment": "flow cytometry, PE-LM609 on SU-DIPG-36 cells", "procedure": "as §1, §2"}, "[8]": {"target": "T1, integrin alphav beta3 (αvβ3), human, on …", "experiment": "flow cytometry, PE-LM609 on SU-DIPG-17 cells", "procedure": "as §1, §2"}}}
{"binder": "phycoerythrin-conjugated anti-integrin αvβ3 monoclonal antibody (clone LM609) (antibody, V domains shown, Bought reagent (Millipore Sigma), conjugated to phycoerythrin; also called PE-conjugated anti-integrin αvβ3 antibody (LM609; Millipore Sigma)) VH: EVQLEESGGGLVKPGGSLKLSCAASGFAFSSYDMSWVRQIPEKRLEWVAKVSSGGGSTYYLDTVQGRFTISRDNAKNTLYLQMSSLNSEDTAMYYCARHNYGSFAYWGQGTLVTVSA VL: ELVMTQTPATLSVTPGDSVSLSCRASQSISNHLHWYQQKSHESPRLLIKYASQSISGIPSRFSGSGSGTDFTLSINSVETEDFGMYFCQQSNSWPHTFGGGTKLEIK", "values": [{"measurement": "MFI ratio (MFI/MFI isotype control)", "setting": "[1]", "result": 2}, {"measurement": "MFI ratio (MFI/MFI isotype control)", "setting": "[2]", "result": 4}, {"measurement": "MFI ratio (MFI/MFI isotype control)", "setting": "[3]", "result": 17}, {"measurement": "MFI ratio (MFI/MFI isotype control)", "setting": "[4]", "result": 6}, {"measurement": "MFI ratio (MFI/MFI isotype control)", "setting": "[5]", "result": 8}, {"measurement": "MFI ratio (MFI/MFI isotype control)", "setting": "[6]", "result": 5}, {"measurement": "MFI ratio (MFI/MFI isotype control)", "setting": "[7]", "result": 16}, {"measurement": "MFI ratio (MFI/MFI isotype control)", "setting": "[8]", "result": 5}]}
